These results are taken from patent US20240383984A1 (Genentech, published 2024).

Test [1] addresses T1, cynomolgus E11 domain protein (cynomolgus monkey).
T1 construct: whole entry named; also called cyno E11
T1 chain: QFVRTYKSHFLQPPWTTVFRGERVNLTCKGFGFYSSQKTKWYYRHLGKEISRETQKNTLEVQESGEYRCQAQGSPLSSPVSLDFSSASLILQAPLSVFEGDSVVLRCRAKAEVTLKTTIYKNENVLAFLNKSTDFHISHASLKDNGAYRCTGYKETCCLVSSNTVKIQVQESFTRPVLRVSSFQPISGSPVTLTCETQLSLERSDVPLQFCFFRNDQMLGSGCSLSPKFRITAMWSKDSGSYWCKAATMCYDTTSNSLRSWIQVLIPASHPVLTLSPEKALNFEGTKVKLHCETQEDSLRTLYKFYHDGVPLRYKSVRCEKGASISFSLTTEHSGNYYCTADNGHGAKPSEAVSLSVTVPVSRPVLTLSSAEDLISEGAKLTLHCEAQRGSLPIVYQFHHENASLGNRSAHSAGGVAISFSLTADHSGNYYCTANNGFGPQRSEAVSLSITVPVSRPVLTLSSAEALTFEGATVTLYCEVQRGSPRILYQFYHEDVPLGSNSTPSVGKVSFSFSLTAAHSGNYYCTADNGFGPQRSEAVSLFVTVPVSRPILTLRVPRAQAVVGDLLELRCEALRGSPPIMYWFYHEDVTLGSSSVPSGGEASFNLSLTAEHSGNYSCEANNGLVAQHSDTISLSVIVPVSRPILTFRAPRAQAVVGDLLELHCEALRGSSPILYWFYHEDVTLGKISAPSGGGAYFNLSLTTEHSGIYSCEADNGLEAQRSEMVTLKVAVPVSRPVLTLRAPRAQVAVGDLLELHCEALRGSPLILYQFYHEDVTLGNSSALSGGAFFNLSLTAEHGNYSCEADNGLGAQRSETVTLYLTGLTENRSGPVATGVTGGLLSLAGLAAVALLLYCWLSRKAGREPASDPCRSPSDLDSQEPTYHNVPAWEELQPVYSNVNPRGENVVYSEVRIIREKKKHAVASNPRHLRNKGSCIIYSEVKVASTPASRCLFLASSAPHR
Put plainly: SPR, IgG captured on protein A, monovalent. On the procedure:
(§1) *E11 domain, transmembrane domain, and cytoplasmic domains of human FcRHS. §Surface plasmon resonance BIACORE * KD, monovalent affinity. Human E11 domain experiments were performed 1 to 3 times and averaged.
(§2) Briefly, test antibodies were captured on flow cells 2, 3 or 4 with flow cell 1 as a reference on a protein A Series S CM5 chip (GE Life Sciences, Piscataway, NJ). An FcRH5 protein fragment was used as analyte, with a flow rate of 30 μl/minute. Between injections the capture surface was regenerated by a 30 second injection of 10 mM glycine, pH 1.5 at a flow rate of 10 μl/minute. Interactions were assessed at 25° C. in 10 mM HEPES pH 7.4, 150 mM NaCl, 0.05% Tween 20 (HBSP). Reference data from the reference flow cell and from injection of buffer alone was subtracted prior to kinetic analysis. Kinetic information was calculated by fitting data to a 1:1 binding model. Reference subtraction and data fitting were performed using BIAevaluation software (GE Life Sciences, Piscataway, NJ).

Test [2] addresses T2, human E11 protein (amino acids 745-850 of SEQ ID NO: 114, N-terminal His tag) (human, UniProt Q96RD9 745-850).
T2 construct: Membrane-proximal Ig domain of FcRH5, produced in CHO cells; also called human E11 domain; recombinant human E11
T2 sequence: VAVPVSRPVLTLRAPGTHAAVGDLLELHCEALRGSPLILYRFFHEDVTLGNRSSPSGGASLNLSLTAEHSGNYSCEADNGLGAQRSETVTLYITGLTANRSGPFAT
Put plainly: SPR, IgG captured on protein A, monovalent. How it is done:
as §1, §2

Test [3] has as its target T3, cynomolgus FcRH5 (full-length, on cells) (cynomolgus monkey).
T3 construct: also called SVT2-Cyno-FcRH5; cyno FcRH5
T3 chain: T1 chain
Briefly: FACS, SVT2 cells, 3 µg/ml. On the procedure:
(§3) Human FcRH5, cyno FcRH5, human FcRH1, FcRH2, FcRH3, and FcRH4 transfected mouse SVT2 cells were used to test binding and cross-reactivity of FcRH5 TDBs. The method was carried out as follows. Cultured SVT2 cells were lifted using non-enzyme cell dissociation buffer (Sigma, #C5914). 1×10⁵ cells were suspended in 100 μL and incubated with FcRH5 TDBs at 3 μg/ml. […] Cells were washed twice with FACS buffer before flow cytometry analysis was carried out on a FACSCalibur.
(A flow cytometer gives signals particle by particle.)

Test [4] addresses T4, human FcRH3 (full-length, on SVT2 cells) (human, UniProt Q96P31 18-734).
T4 construct: whole, on cells; also called SVT2-FcRH3
T4 sequence (looked up): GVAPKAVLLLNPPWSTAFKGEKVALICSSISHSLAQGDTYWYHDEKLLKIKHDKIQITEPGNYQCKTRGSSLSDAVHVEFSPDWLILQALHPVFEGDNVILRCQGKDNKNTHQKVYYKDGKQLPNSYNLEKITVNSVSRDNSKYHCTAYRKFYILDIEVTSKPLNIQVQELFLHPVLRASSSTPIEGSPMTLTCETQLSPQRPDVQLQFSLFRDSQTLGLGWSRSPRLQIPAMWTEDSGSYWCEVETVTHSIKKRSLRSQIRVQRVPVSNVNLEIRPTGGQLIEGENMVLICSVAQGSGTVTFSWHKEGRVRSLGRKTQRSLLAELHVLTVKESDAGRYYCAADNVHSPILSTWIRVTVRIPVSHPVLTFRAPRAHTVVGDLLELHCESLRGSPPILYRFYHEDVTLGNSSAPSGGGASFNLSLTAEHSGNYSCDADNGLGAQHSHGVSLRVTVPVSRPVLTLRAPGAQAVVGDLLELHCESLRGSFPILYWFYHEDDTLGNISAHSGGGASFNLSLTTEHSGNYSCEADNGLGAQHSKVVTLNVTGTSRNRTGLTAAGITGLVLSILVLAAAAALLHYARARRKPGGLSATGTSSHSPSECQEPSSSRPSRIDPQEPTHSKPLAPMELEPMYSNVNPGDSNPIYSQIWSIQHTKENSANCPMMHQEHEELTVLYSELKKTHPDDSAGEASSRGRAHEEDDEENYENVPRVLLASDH
Briefly: FACS, SVT2 cells, 3 µg/ml. On the procedure:
as §3

Where a chain is given by its changes, count along the chain named.

As usually defined, the Kd is the constant that tells how readily two partners part at equilibrium. Lower therefore signals tighter binding.

B1: 17B1 (antibody, mouse IgG2a, V domains shown)
VH: QVQLQQSGPELVRPGVSVKISCKGSGYTFTHYAMHWVKQSHTKSLEWIGMISSSSGNTNFNQKFMDKATMTVDKSSTTAYLELARLTFGDSAIYYCARWSYYALFDYWGQGTTVTVSS
VL: ENVLTQSPAIMSASPGEKVTMTCSADSSVDYIHWYQQKSNTSPKLWIYDTSKLASGVPGRFSGSGSGNSYSLTISSMEAEDFATYYCFQGSGYPLTFGSGTKLELK
notes: mouse mAb, Campaign C; recombinant murine IgG2a for SPR
For B1, the Kd in test [1] came out at 27 nM; in test [2], 68 nM.

B2: 15G8 (antibody, mouse IgG2a, V domains shown)
VH: EVQLQQSGPELVKPGASVKMSCKASGYTFTNYVIHWMKQKPGQGLEWIGYISPYNDYTKYNEKFEGKATLTSDKSSNTAYMELSSLTSEDSAVYYCARRDYYGSSDYWGQGTTLTVSS
VL: QIVLTQSPAIMSASPGEKVTMTCSASSSVDYMHWYQQKSGTSPKKWIYDTSKLASGVPARFSGSGSGTSYSLTIGSMEAEDAATYYCQQWSSNPPTFGGGTKLEIK
notes: mouse mAb, Campaign C; recombinant murine IgG2a for SPR; also called mAb 15G8
As for B2, the Kd in test [1] was determined as 9.1 nM; in test [2], 0.5 nM.

B3: hu1G7.v1.13.1/38E4.v1 TDB (bispecific antibody, V domains shown)
VH 1: EVQLVESGPGLVKPSETLSLTCTVSGFSLTRFGVHWVRQPPGKGLEWLGVIWRGGSTDYNAAFMSRLTISKDNSKNQVSLKLSSVTAADTAVYYCSNHYYGSSDYALDNWGQGTLVTVSS
VL 1: DIQMTQSPSSLSASVGDRVTITCKASQDVRNLVVWFQQKPGKAPKLLIYSGYYRYTGVPSRFSGSGSGTDFTLTISSLQPEDFATYYCQQHYQPPYTFGQGTKVEIK
VH 2: EVQLVQSGAEVKKPGASVKVSCKASGFTFTSYYIHWVRQAPGQGLEWIGWIYPENDNTKYNEKFKDRVTITADTSTSTAYLELSSLRSEDTAVYYCARDGYSRYYFDYWGQGTLVTVSS
VL 2: DIVMTQSPDSLAVSLGERATINCKSSQSLLNSRTRKNYLAWYQQKPGQSPKLLIYWTSTRKSGVPDRFSGSGSGTDFTLTISSLQAEDVAVYYCKQSFILRTFGQGTKVEIK
notes: knob-into-hole TDB; also called 1G7.v1.13.1 TDB
On to B3, for which the binding result in test [3] and in test [4] was “binds” throughout.

B4: hu1G7.v1.2/38E4.v1 TDB (bispecific antibody, V domains shown)
VH 1: B3 VH 1
VL 1: B3 VL 1 with Y53N, T56S, H91Q, Y92F
VH 2: B3 VH 2
VL 2: B3 VL 2
notes: knob-into-hole TDB; also called 1G7.v1.2 TDB
On to B4, for which the binding result in test [3] and in test [4] was “binds” each time.

B5: hu1G7.v1.3/38E4.v1 TDB (bispecific antibody, V domains shown)
VH 1: B3 VH 1
VL 1: B3 VL 1 with L32I, Y52S, T56S, H91Q, Q93S
VH 2: B3 VH 2
VL 2: B3 VL 2
notes: knob-into-hole TDB; also called 1G7.v1.3 TDB
In the case of B5, the binding result in test [3] and in test [4] was “binds” each time.

B6: hu1G7.v1.13/38E4.v1 TDB (bispecific antibody, V domains shown)
VH 1: B3 VH 1 with L48I
VL 1: B3 VL 1
VH 2: B3 VH 2
VL 2: B3 VL 2
notes: knob-into-hole TDB; also called 1G7.v1.13 TDB
For the molecule B6, the binding result in test [3] and in test [4] was “binds” throughout.

B7: hu1G7.v1.1/38E4.v1 TDB (bispecific antibody, V domains shown)
VH 1: B3 VH 1
VL 1: B3 VL 1 with Y52S, T56S, H91Q, Q93S
VH 2: B3 VH 2
VL 2: B3 VL 2
notes: knob-into-hole TDB; also called 1G7.v1.1 TDB
Turning to B7, the binding result in test [3] and in test [4] was “binds” each time.
